Assay results taken from PMC9963752 (Proceedings of the National Academy of Sciences of the …, 2023).
No end group written: not given here.

How the values were obtained:
GRPR = conditions: relative to PD176252 (methoxy group replaced by hydrogen); cited from earlier work
[1] = biological target: GRPR with alanine mutation of C93^2.57 (human, UniProt P30550 1-384, alanine mutation of C93^2.57); assay: cell-based or functional assay
[2] = biological target: GRPR with alanine mutation of Q120^3.30 (human, UniProt P30550 1-384, alanine mutation of Q120^3.30); assay: cell-based or functional assay

GRP-induced calcium mobilization in transfected CHO cells: EC50 against WT-GRPR [1] [fold]	GRP-induced calcium mobilization in transfected CHO cells: EC50 against WT-GRPR [2] [fold]	Molecule	reduction for GRPR binding (GRPR) [fold]
–	–	C[C@@](Cc1c[nH]c2ccccc12)(NC(=O)Nc1ccc([N+](=O)[O-])cc1)C(=O)NCC1(c2ccccn2)CCCCC1 [PD168368]	17
12	25	VPLPAGGGTVLTKMYPRGNHWAVGHLM-NH2 [gastrin-releasing peptide]	–
